Experimental data taken from the DeepSol protein solubility set.

Test: soluble on expression in E. coli; label from the status in PepcDB or PDB records

## AETEKEKQDWIEAVQQSIAETLSDYEVAEKIWFNESNRSCADCKAPDPDWASINLCVVICKKCAGQHRSLGPKDSKVRSLKMDASIWSNELIELFIVIGNKRANDFWAGNLQKDEELHMDSPVEKRKNFITQKYKEGKFRKTLLASLTKEELNKALCAAVVKPDVLETMALLFSGADVMCATGDPVHSTPYLLAKKAGQSLQMEFLYHNKFSDFPQHDIHSEGVLSQESSQSTFLCDFLYQAPSAASKLSSEKKLLEETNKKWCVLEGGFLSYYENDKSTTPNGTININEVICLAIHKEDFYLNTGPIFIFEIYLPSERVFLFGAETSQAQRKWTEAIAKHFVPLFAENLTEADYDLIGQLFYKDCHALDQWRKGWFAMDKSSLHFCLQMQEVQGDRMHLRRLQELTISTMVQNGEKLDVLLLVEKGRTLYIHGHTKLDFTVWHTAIEKAAGTDGNALQDQQLSKNDVPIIVNSCIAFVTQYGLGCKYIYQKNGDPLHISELLESFKKDARSFKLRAGKHQLEDVTAVLKSFLSDIDDALLTKELYPYWISALDTQDDKERIKKYGAFIRSLPGVNRATLAAIIEHLYRVQKCSEINHMNAHNLALVFSSCLFQTKGQTSEEVNVIEDLINNYVEIFEVKEDQVKQMDIENSFITKWKDTQVSQAGDLLIEVYVERKEPDCSIIIRISPVMEAEELTNDILAIKNIIPTKGDIWATFEVIENEELERPLHYKENVLEQVLRWSSLAEPGSAYLVVKRFLTADTIKHCSDRSTLGSIKEGILKIKEEPSKILSGNKFQDRYFVLRDGFLFLYKDVKSSKHDKMFSLSSMKFYRGVKKKMKPPTSWGLTAYSEKHHWHLCCDSSQTQTEWMTSIFIAQHEYDIWPPAGKERKRSITKNPKIGGLPLIPIQHEGNATLARKNIESARAELERLRLSEKCDKESVDSSLKERASMVAHCLEHKDDKLRNRPRKHRSFNCLEDTEPEAPLGQPKGHKGLKTLRKTEDRNSKATLDSDHKLPSRVIEELNVVLQRSRTLPKELQDEQILK
  soluble on expression in E. coli: soluble

## MSSIEWNEKTFAKFAYLSDPRTKGELVAYVLTKANLKDNKYENTIVIENLKNNARRFIENATMPRISPDGKKIAFMRANEEKKVSEIWVADLETLSSKKILEAKNIRSLEWNEDSRKLLIVGFKRREDEDFIFEDDVPAWFDDLGFFDGEKTTFWIFDTESEEVIEEFEKPRFSSGIWHRDKIVVNVPHREIIPQYFKFWDIYIWEDGKEEKMFEKVSFYAVDSDGERILLYGKPEKKYMSEHNKLYIYDGKEVMGILDEVDRGVGQAKIKDGKVYFTLFEEGSVNLYIWDGEIKPIAKGRHWIMGFDVDEIVVYLKETATRLRELFTWDGEEKQLTDYNDPIFAKL
  soluble on expression in E. coli: soluble

## TKLTEQQTMNGLLRFGEYQRIIERRSFSLLDMKRFVTALGLESGGYRGEFSDLVNQGQPAIVPISYAGFKHFVVYKGYKDGRVYVADPALGNISFDEVRFKEIWENNTLFLIQVPE
  soluble on expression in E. coli: not soluble

## MGHHHHHHHHSSGHIEGRHMAHLLIVNVASHGLILPTLTVVTELVRRGHRVSYVTAGGFAEPVRAAGATVVPYQSEIIDADAAEVFGSDDLGVRPHLMYLRENVSVLRATAEALDGDVPDLVLYDDFPFIAGQLLAARWRRPAVRLSAAFASNEHYSFSQDMVTLAGTIDPLDLPVFRDTLRDLLAEHGLSRSVVDCWNHVEQLNLVFVPKAFQIAGDTFDDRFVFVGPCFDDRRFLGEWTRPADDLPVVLVSLGTTFNDRPGFFRDCARAFDGQPWHVVMTLGGQVDPAALGDLPPNVEAHRWVPHVKVLEQATVCVTHGGMGTLMEALYWGRPLVVVPQSFDVQPMARRVDQLGLGAVLPGEKADGDTLLAAVGAVAADPALLARVEAMRGHVRRAGGAARAADAVEAYLARAR
  soluble on expression in E. coli: soluble

## MLIFEGKEISTDSEGYLKETTQWSEALAVAIAANEGIELSAEHWEVVRFVREFYLEFNTSPAIRMLVKAMANKFGEEKGNSRYLYRLFPKGPAKQATKIAGLPKPVKCI
  soluble on expression in E. coli: not soluble

## MSLTRQMNILLVEDDDLDAMMIKRAMAQVAPDAHLIRATDGVEALEIVQSNRVEDPYFILLDVNMPRMNGHEFLKELRASSEHSDTMVFMFTTSESARDIARAYQERANGYIVKPHGKAAMNSILDTLQRYWTTCEEGHHHHHH
  soluble on expression in E. coli: soluble

## MAHHHHHHMSTYANSQARLNRVAPQLRPAGVHGDWTEATMAELLSSYNPNGIITPDHIRSFHHRGCDVGEQRRHWGLAKDAPVDPNMRHGVKGKETGGADACLRPEMYADKMTALLDAQLESQYLSNRRKPLGHAPVPRDPVPVPFGGFGITQKKGDSTQSVLAGYRSVDVLHPAGEQLTRNYDWEKAGIDPTQHRFGKPSARSDGTTAAALFNDSATQLTSKLAKDYETTVAKELGKSKRYGFDDPAEWDEEKRGSVTKFGATGTAASYFQTEQPTVRELLSSWAQTASGPRADKAASGKAGQQGLTGSADSAVTAKADASAAAPVASGPSLTEPLKDEARAHQLLYPCHYVSLGVESKYFAGGRPLEDIRRLCHKCSFGLSDADIDAVFVLVAKGGSTCSIEEFKNAARARGYM
  soluble on expression in E. coli: not soluble

## MGSDKIHHHHHHMQVVYHLGAPCTDADQLIMSLLKNRLRLAQAGIFVPVPGRYRAVIRDTARALKGQPAGKEVQEALLDAIVDDAQVDRLVLSDPRFVCINRLVVQGAQIWPMIERAATGLRALFPEAHVEFFIGMRDPATLIPALFKASRFSDFAEFTENMQPHAVAWSETLRRLQLAHPDCRITAWCNEDTPLLWGEILRELAGVGPEGELDGINDLAVSIMEEEGLKRMGQWFGQNPPKTEAQRRRALTAFLERYAKAGEIEETLNLPGWDEALMAEMSQSYDQDMEVIARLPGVTLLVP
  soluble on expression in E. coli: not soluble

## MRKIWGILFLCLTFMLVGCGKEEKPQEAFDTYAKAWNKQKFAEMYDQLSEKAKKDISKKEFTEKYEKIYSGIEVKNLKVEAGEVKEDKKDEGPIPFKVSMDTVGGKINFGHEAKMVKEKDGDKESWKVDWTPDFIFPGMTKDSKVRMQTTEPKRGEIYDRNGKGLATNGKASEIGLIPEKLGDTAPQTKETVAKLLNMSVEEIDQKLAAKWVKPGYLVPIGILPEGATQNTYIDLPGVSTKPVNVRTYPLGEAAAHLTGYIGKVNAEDLKTLQKKGYQADDPVGKAGLEQVLEEKLRGKKGGRVFVEDAQGKEIKNLAKTDAVDGENVTLTIDSAVQEKTYNEMKGEAGSSAAINPKSGETLALVSSPAYDPNIIARGTSKAQREAWNNDPKKPMTNRFTQLSVPGSVFKPITAAIGLETKTIDPKEELKIEGLKWTKDSSWGNYYVTRVKDANPIDFDKAMKYSDNIYFAQEALKIGKDKFMSEAKKFGFDEKLPIEYGFPASKIANDGIKNDIQMADTGYGQGQVLMTPLHLALTYAPIVNDGNIPSPYIIKTDKQPKVWKENVISKGNQDILKTAMTKVINDPDGTGKIAKIDGMTLAGKTGTAELKVSKEAEGKELGWFAAFDLNSPDMVITMMIEDVKGRGGSNIPAEKVKHVFQK
  soluble on expression in E. coli: not soluble

## HELLSREEVESILSENQLLLQVTPTAPPKTPLSVCFYQVSLEIDRPQSPLVSQSAFEEAATLYNLLPKVDSWICEQLLVDHAQAIHQKGLALAIPLSEAALLKEDFRQSLLTLVQQTLLPPQSLYWMIDESTLLQYPFAIGNFLAKLQQPGCKLIVKEFGHNLNDFELLAEHHIDYLKFNSELIAHIHINQMDEVLISIINGTAQRANIATLAGPVELPPTLSKLIDIGVDLADGTMIGRTEPLSEVLNSSYFAIK
  soluble on expression in E. coli: soluble

## SKKVIGKKRAHAEDDELDPMDPSSYSDAPRGGWVVGLKGVQPRAADTTASGPLFQQRPYPSPGAVLRRNAEVASSQKKKPNSQFTEITKRGDGSDGLGDAD
  soluble on expression in E. coli: soluble

## MKIFENIEDVKAIRKKTGLNQIDFWGKVGVTQSGGSRYETGRKMPKPVRELLRLVHIECIDLAKVNKKDMEIAALLKKHHPDLYAELSKQTKSERKKQS
  soluble on expression in E. coli: not soluble

## MGSDKIHHHHHHMKAVTLRANCDPLFSLFMTSFSEANNIYILNFKKRALQSLLKVKLMYYHESIDSKSKIFPVKIILHDKAVNVPKHWHRSLEISYTYQGSIPDFTIAGKHYSTRPGTILVVNSNEIHSVFFPKTKKRQDSLALSLIFPYPFLMKIVPNYRYRRYEIPDKELLTANNQQNLAELEGILKKFFQFASHQTNSLDEISKTSQILQILYLLTKNFSSIVTTPNDLATTDKPFERLDEIIMFIQEHAKEALTVTKIADHFNLSTSYFSRNFKYYMGNSVIEYLNLVRLHEAYQLLTNTKKSILVISTQVGFPNEKAFTRTFKRIYKVTPTDYRKRLSGKNRTNIL
  soluble on expression in E. coli: not soluble

## MSLESIKKRAYEIENELGKEIEEVCNFIFNNPELGEEEYISSKYLVEKMKEYGFDTVYPYCNMETAFRAELGDNDGPTIAFLAEYDALPGYGENKEPAHACGHNWIAASTLGACIVLSKLKENFKGKIVLIGTPAEETTGGKCDLVKAGAFDDVDVSYQMHIEAFNNINCKALAIDSLEFSFEGVSAHAASHPHMGVNALDAVQLTFAGINALRQHVKSDVRIHGIVSNGGEAPNIVPEKAACKFFVRAAERSYLDEVTKKVINCAKGAELMTGAKLSYRYFENSFDNIINNKVLQKITKNNLIEAGITDILEGKDGPVGSTDIGNVSQVCPTMYTEIALDISPMVYVHEKEFLNYANSEEAYDKLHKAVKAMVGCALEIYLEDGLLDEIKKNHLNEGHHHHHH
  soluble on expression in E. coli: soluble

## MAGLLKESMRIKMYMEGTVNGHYFKCEGEGDGNPFAGTQSMRIHVTEGAPLPFAFDILAPCCESRTFVHHTAEIPDFFKQSFPEGFTWERTTTYEDGGILTAHQDTSLEGNCLIYKVKVHGTNFPADGPVMKNKSGGWEPSTEVVYPENGVLCGRNVMALKVGDRHLICHHYTSYRSKKAVRALTMPGFHFTDIRLQMLRKKKDEYFELYEASVARYSDLPEKAN
  soluble on expression in E. coli: soluble

## MRALRRGKGITLKQLAKALNKNISRGEAKNTESQIGNWERGERNPNYLEVKKLADYFDVSIDYLVGRYNNDQVDLAKAMITSSKLTYNDTPLDNNDKYEILQLISGYLHARGRRSTGDLININHQESLDLFNNQNDF
  soluble on expression in E. coli: not soluble

## MSTTTAITSTLQRVTKAPEGRRMLRVEARNSQTPIESKPRWIRTAVKTGPEYQDMKKKVSGASLHTVCQEAGCPNIHECWESREATFLIGGANCSRRCDFCQINSAKPEPLDRDEPRRVAESVREMQLNYSTITGVTRDDLEDEGAWLYAEVVRKIHELNPHTGVENLTPDFSGKPDLLQEVFEARPEVFAHNLETVPRIFKRIRPAFRYERSLDVIRQARDFGLVTKSNLILGMGETVDEIRDALVDLHSAGCDIITITQYLRPGPMYHPIDRWVKPEEFIDHADFARELGFGAVMSGPLVRSSYRAGKLYAEALAARGESLPENLAHLATTADGSTAQEANTLLEKYGPSQDTPVVSSKA
  soluble on expression in E. coli: not soluble

## MVRYFGFLANRVCGEKLPQVYRALGMDKPEPVAKVCYAQMVKQFLSRDPFECVLCGGRMVYRRAIAGLNVEGLKKNARDISLLRYMPA
  soluble on expression in E. coli: not soluble

## MSLAEILMGVGNAGLKESGNPDILVVYLPYPCTASFVFTDNYFKAGSVIYSERIARDKERIRAFVVNSGNANCGTGEEGIKHAEMMAEKVAQILDIPKDEVFVFSTGIIGKYLPIENVLKGIEQACSNLELLDLKRASEVISTTDRFPKYDFAKAGEVETFGFAKGAGMIHPSMATMLAFVFTNANLEYLTLKRIHESVTEKTFNSITVDGCESTNDAFGIISLGEVEADPETVEFELLKVSESLAKQIVADGEGATKIIRVNVRSAITEIKAREIAEAIANSLLVKTAVFGRDPNWGRIAAAAGSTEFPIDPFKLEIYVGGYLLYDGKPHDENLEKAKKHLIEDREVDITVELNEGEYEWVCYSSDIGYDYIKLNAEYTTEGHHHHHH
  soluble on expression in E. coli: soluble

## MNIYQQLVKQKLKTITPEELVSYSREYGLPITTSQAKQILHLARTNDINVFDPEERKKWVRELAKITSPDIARKANELFLKFVQKK
  soluble on expression in E. coli: not soluble
